Experimental data: the supplement of paper PMC10567573
± gives the standard deviation.

Assay: protein stability index of a GFP-peptide fusion (GPS, HEK-293T) (PSI 1-6); higher = more stable
[1] = treatment: DMSO, c terminus: a fixed tail appended
[2] = treatment: MLN4924 1 uM, 8 h, c terminus: a fixed tail appended
[3] = treatment: DMSO, c terminus: native
[4] = treatment: MLN4924 1 uM, 8 h, c terminus: native
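Note: 24-mer peptide tiles fused after GFP, lentivirally expressed, FACS-sorted into six equal bins by GFP/DsRed ratio, decoded by Illumina sequencing, PSI is the read-weighted mean bin number.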

Sequence | protein stability index [1] | protein stability index [2] | protein stability index [3] | protein stability index [4]
QLVNSSADNMLEYKSWLKNLAKEQ [PPEF2] | 3.24 ± 0.17 | 3.77 ± 0.5 | – | –
MGKSASKQFHNEVLKAHNEYRQKH [GLIPR2] | 3.94 ± 0.27 | 3.96 ± 0.28 | – | –
GEVPVLIHGENIICEATQIIDYLE [GDAP1] | 3.55 ± 0.29 | 3.6 ± 0.3 | – | –
EKERRKKQQWEIMHKHNETSQKIA [RSPH3] | 4.44 ± 0.42 | 4.91 ± 0.26 | – | –
IFNNVMTLCAMLPLLLFTYLNSFL [SLC29A1] | 3.25 ± 0.25 | 3.23 ± 0.2 | – | –
PSLGPALSTGPRGLCAMPQTGDAF [VENTX] | 3.64 ± 0.089 | 3.6 ± 0.17 | – | –
YSHEVSLTADSRKSHLIFPQPNYA [PCDHGA10] | 2.79 ± 0.48 | 2.74 ± 0.29 | – | –
ILTFLRAGKLRLLREMCALSFQEE [KCNG1] | 3.24 ± 0.69 | 2.19 ± 0.28 | – | –
QKLEREARICRLLKHPNIVRLHDS [CAMK2A] | 2.5 ± 0.13 | 2.72 ± 0.17 | – | –
IFTTPNFDETSSATTISTSEDGSY [KMT2E] | 4.75 ± 0.13 | 4.67 ± 0.26 | – | –
PSTYGGGLSVSSRFSSGGACGLGG [KRT16] | 3.21 ± 0.21 | 3.44 ± 0.2 | – | –
SRNAADKERAAGGGAGSSEDDAQS [GOLPH3] | 5.63 ± 0.24 | 5.6 ± 0.15 | – | –
DLVKKIRDFHRKILTLPEMMRMFS [TRIM15] | 2.45 ± 0.46 | 2.35 ± 0.19 | – | –
GGPQALVNIMRTYTYEKLLWTTSR [CTNNB1] | 2.43 ± 0.6 | 2.5 ± 0.27 | – | –
LAVSRPRSSPDDLKALTRNVNRLN [SCARA5] | 3.82 ± 0.22 | 3.84 ± 0.22 | – | –
SLSVFTEPNRHFYREMQSFSEDI [FBXO33] | – | – | 3.26 ± 0.32 | 3.33 ± 0.27
IYGGELGPMMKLKRHFVAQKYKKQ [ACSBG2] | 2.49 ± 0.2 | 2.85 ± 0.25 | – | –
APNSLSAPTMLHNSSGDFSQAHST [TRAF3IP2] | 4.84 ± 0.14 | 4.78 ± 0.28 | – | –
TGDGWEFKLADPDEVARRWGKRKN [ETS2] | 4.34 ± 0.33 | 4.34 ± 0.26 | – | –
TSPYSDPVVSMDLDPQPITDEEEG [PTPRD] | 5.63 ± 0.19 | 5.61 ± 0.095 | – | –
VCGHTLCESCVDLLFVRGAGNCPE [MNAT1] | 2.64 ± 0.42 | 2.87 ± 0.53 | – | –
LKERYQKIGDTKRNTPIEALCENF [CSNK1G1] | 3.43 ± 0.65 | 3.44 ± 0.49 | – | –
AAIAFTLALFSHLVNHVNIRLQAE [SMG5] | 3.22 ± 0.4 | 3.46 ± 0.37 | – | –

Sequence | protein stability index [1] | protein stability index [2] | protein stability index [3] | protein stability index [4]
CWLNAFAEMLRFGDRMFYRDWWNS [SOAT2] | 2.47 ± 0.4 | 2.91 ± 0.16 | – | –
GARQISYSIPEELEKGSFVGNISK [PCDHGA10] | 4.13 ± 0.19 | 4.23 ± 0.17 | – | –
TNKMKSPETKQRKLSPLRLSVSNN [KMT2E] | 4.45 ± 0.18 | 4.41 ± 0.083 | – | –
MTQLSSTLARCAKDILGFAVMFFI [PKD2L1] | 2.39 ± 0.37 | 2.28 ± 0.42 | – | –
LNEKRTFFHLSALKGYLYAVGGRN [KLHL13] | 2.49 ± 0.68 | 2.33 ± 0.46 | – | –
PLHAPEAYFPYFKKHNVTAVVRLN [CDC14A] | 2.17 ± 0.094 | 2.08 ± 0.37 | – | –
PPQLRPGAPTSLQTEPQDRSPAPM [BCL2L11] | – | 5.18 ± 0.077 | – | –
KAPAKKANSTTTAGRDHFLTCGV [BRD3] | – | – | 2.5 ± 0.11 | 2.74 ± 0.26
SERAEVQRLEEQERRHREEKERRK [RSPH3] | 5.31 ± 0.47 | 5.673 ± 0.05 | – | –
VPFDIFTEEVKFYQLGEEALLKFR [KCNA4] | 2.32 ± 0.36 | 2.54 ± 0.19 | – | –
LRNNFQKQLLSNKELILDKVYTHP [ZC2HC1C] | 2.76 ± 0.23 | 3.08 ± 0.25 | – | –
QLNGILLHLESELAQTRAEGQRQA [KRT18] | 2.93 ± 0.26 | 2.86 ± 0.16 | – | –
STPLTATPGGRGDMKYGIYAVENE [VTI1B] | 4.53 ± 0.19 | 4.42 ± 0.22 | – | –
FFCEGVKIIFRVGLVLLKHALGSP [TBC1D10A] | 1.98 ± 0.54 | 2.11 ± 0.36 | – | –
AEVVKIRDSFSNQNTETKDTKSR [DLC1] | – | – | 2.89 ± 0.56 | 3.47 ± 0.74
LFLGIHVFLVSCALPDSVLRRFVV [AUP1] | 3.03 ± 0.52 | 2.97 ± 0.63 | – | –
RPDKALSEGDLKNAIRVHHALATR [PSD2] | 4.07 ± 0.1 | 4.31 ± 0.3 | – | –
EYSPEEESEPPAPNIRNMAPNSLS [TRAF3IP2] | 5.04 ± 0.36 | 5.07 ± 0.27 | – | –
MDDQGCPRCKTTKYRNPSLKLMVN [MNAT1] | 2.8 ± 0.16 | 3.21 ± 0.22 | – | –
VLEMFDLRMMVENIMNKEAFMNQE [RHOBTB1] | 2.47 ± 0.45 | 2.33 ± 0.26 | – | –
GLVDFRDVALALAALDGGRSLEEL [LPCAT4] | 2.51 ± 0.34 | 3.17 ± 0.33 | – | –
TLALEYTYGRRAKGHNTPKDIAHF [DYNC2LI1] | 2.74 ± 0.071 | 2.83 ± 0.22 | – | –
AFSQAISAIQALRSSVSRVFDCLK [MED27] | 3.69 ± 0.36 | 3.41 ± 0.15 | – | –
